Experimental data published in patent US12605469B2, “Tumor specific antibody conjugates and uses therefor” (The University of North Carolina at Charlotte, priority 2019, dated 2026).

Molecular target: T1, human MUC1, tumor-associated form (tMUC), on tumor cells and tumor tissue (human, UniProt P15941 24-1255, tumor-associated (aberrant) glycosylation, not specified further)
T1 construct: also called tMUC1; tumor-associated glycosylated MUC1
Experiment: flow cytometry of particle uptake, 12 hours at 37 °C; KCM cells (human MUC1) against KCKO cells (MUC1 knockout)

T1 sequence (P15941 other isoform, or with tags, fused parts or gaps limits assumed): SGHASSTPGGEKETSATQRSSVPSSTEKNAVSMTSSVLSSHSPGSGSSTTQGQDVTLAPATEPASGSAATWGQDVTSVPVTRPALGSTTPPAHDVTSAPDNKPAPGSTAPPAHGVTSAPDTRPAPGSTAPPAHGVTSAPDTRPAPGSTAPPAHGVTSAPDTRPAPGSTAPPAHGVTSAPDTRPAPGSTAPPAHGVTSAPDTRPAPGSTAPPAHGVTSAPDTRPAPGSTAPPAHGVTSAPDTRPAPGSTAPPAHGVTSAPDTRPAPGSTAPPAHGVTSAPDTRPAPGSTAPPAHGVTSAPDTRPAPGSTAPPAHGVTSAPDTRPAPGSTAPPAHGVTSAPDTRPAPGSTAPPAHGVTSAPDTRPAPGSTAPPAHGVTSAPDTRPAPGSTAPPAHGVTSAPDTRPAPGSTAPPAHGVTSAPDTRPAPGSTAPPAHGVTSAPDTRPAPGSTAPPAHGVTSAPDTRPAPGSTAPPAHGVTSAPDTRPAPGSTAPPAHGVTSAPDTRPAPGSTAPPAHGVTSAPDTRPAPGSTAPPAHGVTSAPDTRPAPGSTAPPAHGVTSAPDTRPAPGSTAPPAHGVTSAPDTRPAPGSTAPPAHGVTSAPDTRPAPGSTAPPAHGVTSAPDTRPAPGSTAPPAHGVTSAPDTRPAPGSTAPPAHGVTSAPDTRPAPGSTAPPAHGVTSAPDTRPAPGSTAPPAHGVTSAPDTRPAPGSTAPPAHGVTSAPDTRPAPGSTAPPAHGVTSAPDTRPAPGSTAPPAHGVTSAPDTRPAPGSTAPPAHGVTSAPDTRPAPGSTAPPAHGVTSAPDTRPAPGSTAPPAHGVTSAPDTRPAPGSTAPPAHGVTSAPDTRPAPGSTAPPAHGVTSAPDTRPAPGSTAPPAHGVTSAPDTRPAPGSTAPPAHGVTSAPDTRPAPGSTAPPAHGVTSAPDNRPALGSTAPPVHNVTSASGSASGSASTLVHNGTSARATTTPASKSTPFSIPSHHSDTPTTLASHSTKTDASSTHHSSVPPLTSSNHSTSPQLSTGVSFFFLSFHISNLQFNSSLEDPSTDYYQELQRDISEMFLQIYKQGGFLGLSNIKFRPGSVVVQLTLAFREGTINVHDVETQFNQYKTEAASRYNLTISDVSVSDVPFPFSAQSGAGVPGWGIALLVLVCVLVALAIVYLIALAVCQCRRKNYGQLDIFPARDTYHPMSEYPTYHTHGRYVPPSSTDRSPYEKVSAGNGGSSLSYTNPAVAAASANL

Binder | fold increase in uptake by KCM cells as compared to KCKO cells [fold]
TAB-004 antibody-conjugated mesoporous silica nanoparticle (antibody, V domains shown, antibody coupled by EDC to the carboxylic acid groups of a PEG-2K linker on an FITC-labelled mesoporous silica nanoparticle; site not stated, Many copies of TAB-004 on one particle; also called TAB-004-MSN) VH: EVQLQQSGGERATPGASVKMSCKTSGYTFTNYWMHWVKQRPGQGLEWIGYINPSSGYTQYNQKFKDKATLTADKSSSTAYIQLSSLTSEDSAVYYCSTYYGDYLFPYWGQGTLVTVSA VL: DVLMTQTPLSLPVSLGDQASISCRSSQDIVYGNGNTYLEWYLQKPGQSPKLLIYKVSNRFSGVPDRFSGSGSGTDFTLKISRVEAEDLGVYYCFQGSHVPYTFGGGTKLEIKR | 8

Molecular target: T2, human MUC1 antigen in plate ELISA (KCM lysate) (human, UniProt P15941 24-1255, limits assumed, tumor-associated glycosylation, not specified further)
Experiment: sandwich ELISA: hybridoma antibody coat, KCM lysate 10 µg/mL, test antibody in 5-fold dilutions, HRP goat anti-human IgG, OD450

T2 sequence (P15941 other isoform, or with tags, fused parts or gaps limits assumed): as the sequence (P15941 other isoform, or with tags, fused parts or gaps limits assumed) above

Binder | EC50 [µg/mL]
Chimeric parental antibody (H4965 + L4965) (antibody, IgG1, V domains shown, also called pp 9854; Chimeric Parental HC) VH: EVQLQQSGGERATPGASVKMSCKTSGYTFTNYWMHWVKQRPGQGLEWIGYINPSSGYTQYNQKFKDKATLTADKSSSTAYIQLSSLTSEDSAVYYCSTYYGDYLFPYWGQGTLVTVSA VL: DVLMTQTPLSLPVSLGDQASISCRSSQDIVYGNGNTYLEWYLQKPGQSPKLLIYKVSNRFSGVPDRFSGSGSGTDFTLKISRVEAEDLGVYYCFQGSHVPYTFGGGTKLEIKR | 0.006
Humanized HC2 + LC2 (antibody, human IgG2, kappa, V domains shown, Listing: IgG2 heavy chain; also called H6246 + L6246) VH: QVQLVQSGAEVKKPGASVKVSCKASGYTFTNYWMHWVRQAPGQGLEWMGYINPSSGYTQYNQKFQGRVTMTADTSTSTVYMELSSLRSEDTAVYYCSTYYGDYLFPYWGQGTLVTVSS VL: DVVMTQSPLSLPVTLGQPASISCRSSQDIVYGNGNTYLEWYQQRPGQSPRLLIYKVSNRFSGVPDRFSGSGSGTDFTLKISRVEAEDVGVYYCFQGSHVPYTFGQGTKLEIKR | 0.032
Humanized HC1 + LC2 (antibody, human IgG2, kappa, V domains shown, Listing: IgG2 heavy chain; also called H6245 + L6246) VH: QVQLVQSGAEVKKPGASVKVSCKASGYTFTNYWMHWVRQAPGQGLEWMGYINPSSGYTQYNQKFQGRVTMTRDTSTSTVYMELSSLRSEDTAVYYCSTYYGDYLFPYWGQGTLVTVSS VL: DVVMTQSPLSLPVTLGQPASISCRSSQDIVYGNGNTYLEWYQQRPGQSPRLLIYKVSNRFSGVPDRFSGSGSGTDFTLKISRVEAEDVGVYYCFQGSHVPYTFGQGTKLEIKR | 0.055
Humanized HC3 + LC3 (antibody, human IgG2, kappa, V domains shown, Listing: IgG2 heavy chain; also called H6247 + L6247) VH: EVQLVQSGAEVKKPGASVKVSCKASGYTFTNYWMHWVRQAPGQGLEWMGYINPSSGYTQYNQKFQGWVTMTADTSISTAYMELSRLRSDDTAVYYCSTYYGDYLFPYWGQGTLVTVSS VL: DIVLTQSPLSLPVTLGQPASISCRSSQDIVYGNGNTYLEWYQQRPGQSPRLLIYKVSNRFSGVPDSFSGSGSGTDFTLTISRVEAEDVGIYYCFQGSHVPYTFGEGTKLEIKR | 0.004
Humanized HC1 + LC3 (antibody, human IgG2, kappa, V domains shown, Listing: IgG2 heavy chain; also called H6245 + L6247) VH: QVQLVQSGAEVKKPGASVKVSCKASGYTFTNYWMHWVRQAPGQGLEWMGYINPSSGYTQYNQKFQGRVTMTRDTSTSTVYMELSSLRSEDTAVYYCSTYYGDYLFPYWGQGTLVTVSS VL: DIVLTQSPLSLPVTLGQPASISCRSSQDIVYGNGNTYLEWYQQRPGQSPRLLIYKVSNRFSGVPDSFSGSGSGTDFTLTISRVEAEDVGIYYCFQGSHVPYTFGEGTKLEIKR | 0.051
Humanized HC3 + LC2 (antibody, human IgG2, kappa, V domains shown, Listing: IgG2 heavy chain; also called H6247 + L6246) VH: EVQLVQSGAEVKKPGASVKVSCKASGYTFTNYWMHWVRQAPGQGLEWMGYINPSSGYTQYNQKFQGWVTMTADTSISTAYMELSRLRSDDTAVYYCSTYYGDYLFPYWGQGTLVTVSS VL: DVVMTQSPLSLPVTLGQPASISCRSSQDIVYGNGNTYLEWYQQRPGQSPRLLIYKVSNRFSGVPDRFSGSGSGTDFTLKISRVEAEDVGVYYCFQGSHVPYTFGQGTKLEIKR | 0.007
Humanized HC2 + LC3 (antibody, human IgG2, kappa, V domains shown, Listing: IgG2 heavy chain; also called H6246 + L6247) VH: QVQLVQSGAEVKKPGASVKVSCKASGYTFTNYWMHWVRQAPGQGLEWMGYINPSSGYTQYNQKFQGRVTMTADTSTSTVYMELSSLRSEDTAVYYCSTYYGDYLFPYWGQGTLVTVSS VL: DIVLTQSPLSLPVTLGQPASISCRSSQDIVYGNGNTYLEWYQQRPGQSPRLLIYKVSNRFSGVPDSFSGSGSGTDFTLTISRVEAEDVGIYYCFQGSHVPYTFGEGTKLEIKR | 0.027

Molecular target: T2, human MUC1 antigen in plate ELISA (KCM …)
Experiment: sandwich ELISA: hybridoma antibody coat, KCM lysate 10 µg/mL, test antibody in 5-fold dilutions, HRP goat anti-human IgG

Binder | binding result
Humanized HC1 + LC1 (antibody, human IgG2, kappa, V domains shown, also called H6245 + L6245) VH: QVQLVQSGAEVKKPGASVKVSCKASGYTFTNYWMHWVRQAPGQGLEWMGYINPSSGYTQYNQKFQGRVTMTRDTSTSTVYMELSSLRSEDTAVYYCSTYYGDYLFPYWGQGTLVTVSS VL: DVVMTQSPLSLPVTLGQPASISCRSSQDIVYGNGNTYLEWFQQRPGQSPRLLIYKVSNRFSGVPDRFSGSGSGTDFTLKISRVEAEDVGVYYCFQGSHVPYTFGQGTKLEIKR | no binding
Humanized HC2 + LC1 (antibody, human IgG2, kappa, V domains shown, Listing: IgG2 heavy chain; also called H6246 + L6245) VH: QVQLVQSGAEVKKPGASVKVSCKASGYTFTNYWMHWVRQAPGQGLEWMGYINPSSGYTQYNQKFQGRVTMTADTSTSTVYMELSSLRSEDTAVYYCSTYYGDYLFPYWGQGTLVTVSS VL: DVVMTQSPLSLPVTLGQPASISCRSSQDIVYGNGNTYLEWFQQRPGQSPRLLIYKVSNRFSGVPDRFSGSGSGTDFTLKISRVEAEDVGVYYCFQGSHVPYTFGQGTKLEIKR | no binding
Humanized HC3 + LC1 (antibody, human IgG2, kappa, V domains shown, Listing: IgG2 heavy chain; also called H6247 + L6245) VH: EVQLVQSGAEVKKPGASVKVSCKASGYTFTNYWMHWVRQAPGQGLEWMGYINPSSGYTQYNQKFQGWVTMTADTSISTAYMELSRLRSDDTAVYYCSTYYGDYLFPYWGQGTLVTVSS VL: DVVMTQSPLSLPVTLGQPASISCRSSQDIVYGNGNTYLEWFQQRPGQSPRLLIYKVSNRFSGVPDRFSGSGSGTDFTLKISRVEAEDVGVYYCFQGSHVPYTFGQGTKLEIKR | no binding
